B1: EDARADD (parent)
chain: VEKVLRRWVDEEWPKRERGDPSRH
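Also: lentivirally expressed fusions sorted by FACS into six bins by GFP to DsRed ratio, PSI derived from sequencing read proportions per bin multiplied by bin number.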

In this series the parent is B1. Kind of series: protein stability index of a GFP-peptide fusion (GPS, HEK-293T) (PSI 1-6); higher = more stable. The following applies: c terminus: a fixed tail appended.
In the case of VEKQLRRWVDEEWPKRERGDPSRH [V4Q], the protein stability index is 2.76.

In the case of VEKHLRRWVDEEWPKRERGDPSRH [V4H], the protein stability index turned out to be 3.6. Regarding VEKYLRRWVDEEWPKRERGDPSRH [V4Y], the protein stability index stood at 2.5. Regarding VEKFLRRWVDEEWPKRERGDPSRH [V4F], the protein stability index came out at 1.97. Consider VEKSLRRWVDEEWPKRERGDPSRH [V4S], for which the protein stability index came to 4.21. The result for VEKNLRRWVDEEWPKRERGDPSRH [V4N] reads 4.2; that for VEKKLRRWVDEEWPKRERGDPSRH [V4K], 3.06; that for VEKWLRRWVDEEWPKRERGDPSRH [V4W], 3.53. Regarding VEKCLRRWVDEEWPKRERGDPSRH [V4C], the protein stability index turned out to be 2.62.

In the case of VEKDLRRWVDEEWPKRERGDPSRH [V4D], the protein stability index was 4.08. The result for VEKRLRRWVDEEWPKRERGDPSRH [V4R] reads 3.42. To VEKELRRWVDEEWPKRERGDPSRH [V4E] belongs 4.41. To VEKALRRWVDEEWPKRERGDPSRH [V4A] belongs 2.89; to VEKLLRRWVDEEWPKRERGDPSRH [V4L], 2.2; to VEKVLRRWVMEEWPKRERGDPSRH [D10M], 2.26. As for VEKVLRRWVIEEWPKRERGDPSRH [D10I], the protein stability index came out at 2.65.

For VEKVLRRWVVEEWPKRERGDPSRH [D10V], the protein stability index stood at 2.47. The result for VEKVLRRWVGEEWPKRERGDPSRH [D10G] reads 3.39; that for VEKVLRRWVCEEWPKRERGDPSRH [D10C], 2.69; that for VEKVLRRWVAEEWPKRERGDPSRH [D10A], 2.53. To VEKVLRRWVYEEWPKRERGDPSRH [D10Y] belongs 2.59; to VEKVLRRWVKEEWPKRERGDPSRH [D10K], 2.4; to VEKVLRRWVTEEWPKRERGDPSRH [D10T], 2.74. To VEKVLRRWVREEWPKRERGDPSRH [D10R] belongs 2.62; to VEKVLRRWVPEEWPKRERGDPSRH [D10P], 3.4; to VEKVLRRWVSEEWPKRERGDPSRH [D10S], 3.4.

With VEKVLRRWVWEEWPKRERGDPSRH [D10W], the protein stability index turned out to be 2.88. For the variant VEKVLRRWVFEEWPKRERGDPSRH [D10F], the protein stability index was 2.81. On to VEKVLRRWVLEEWPKRERGDPSRH [D10L], for which the protein stability index worked out at 3.29. To VEKVLRRWVHEEWPKRERGDPSRH [D10H] belongs 2.44.

Regarding VEKVLRRWVQEEWPKRERGDPSRH [D10Q], the protein stability index was determined as 2.73. To VEKVLRRWVNEEWPKRERGDPSRH [D10N] belongs 2.71; to VEKVLRRPVDEEWPKRERGDPSRH [W8P], 4.71; to VEKVLRRLVDEEWPKRERGDPSRH [W8L], 2.76.

On to VEKVLRRNVDEEWPKRERGDPSRH [W8N], for which the protein stability index turned out to be 5.25. To VEKVLRRAVDEEWPKRERGDPSRH [W8A] belongs 3.98; to VEKVLRRQVDEEWPKRERGDPSRH [W8Q], 4.78.

On to VEKVLRRRVDEEWPKRERGDPSRH [W8R], for which the protein stability index was 4.13.

Regarding VEKVLRREVDEEWPKRERGDPSRH [W8E], the protein stability index was found to be 4.22. VEKVLRRHVDEEWPKRERGDPSRH [W8H]: the protein stability index was found to be 4.08.

As to VEKVLRRGVDEEWPKRERGDPSRH [W8G], the protein stability index is 4.8.

With VEKVLRRDVDEEWPKRERGDPSRH [W8D], the protein stability index was 4.56. The result for VEKVLRRIVDEEWPKRERGDPSRH [W8I] reads 3.4; that for VEKVLRRSVDEEWPKRERGDPSRH [W8S], 4.97; that for VEKVLRRFVDEEWPKRERGDPSRH [W8F], 3.34. To VEKVLRRYVDEEWPKRERGDPSRH [W8Y] belongs 3.12; to VEKVLRRCVDEEWPKRERGDPSRH [W8C], 4.03. The result for VEKVLRRMVDEEWPKRERGDPSRH [W8M] reads 3.69. VEKVLRRKVDEEWPKRERGDPSRH [W8K]: the protein stability index came out at 4.43. To VEKVLRRTVDEEWPKRERGDPSRH [W8T] belongs 4.06. As to VLKVLRRWVDEEWPKRERGDPSRH [E2L], the protein stability index turned out to be 1.39. VTKVLRRWVDEEWPKRERGDPSRH [E2T]: the protein stability index came out at 2.24.

For the variant VWKVLRRWVDEEWPKRERGDPSRH [E2W], the protein stability index stood at 2.05. The result for VQKVLRRWVDEEWPKRERGDPSRH [E2Q] reads 2.51; that for VSKVLRRWVDEEWPKRERGDPSRH [E2S], 2.46; that for VCKVLRRWVDEEWPKRERGDPSRH [E2C], 2.3. To VAKVLRRWVDEEWPKRERGDPSRH [E2A] belongs 2.61; to VFKVLRRWVDEEWPKRERGDPSRH [E2F], 1.45; to VMKVLRRWVDEEWPKRERGDPSRH [E2M], 1.96. To VYKVLRRWVDEEWPKRERGDPSRH [E2Y] belongs 1.89. Consider VNKVLRRWVDEEWPKRERGDPSRH [E2N], for which the protein stability index turned out to be 3.23. To VDKVLRRWVDEEWPKRERGDPSRH [E2D] belongs 2.9; to VIKVLRRWVDEEWPKRERGDPSRH [E2I], 1.72; to VHKVLRRWVDEEWPKRERGDPSRH [E2H], 2.37. In the case of VVKVLRRWVDEEWPKRERGDPSRH [E2V], the protein stability index was 1.63. The result for VKKVLRRWVDEEWPKRERGDPSRH [E2K] reads 1.24; that for VPKVLRRWVDEEWPKRERGDPSRH [E2P], 2.94; that for VRKVLRRWVDEEWPKRERGDPSRH [E2R], 2.53. The result for VEKVLRRWVDGEWPKRERGDPSRH [E11G] reads 3.1.

With VEKVLRRWVDHEWPKRERGDPSRH [E11H], the protein stability index is 2.44. The result for VEKVLRRWVDDEWPKRERGDPSRH [E11D] reads 3.28.

Consider VEKVLRRWVDAEWPKRERGDPSRH [E11A], for which the protein stability index came to 2.73. Take VEKVLRRWVDIEWPKRERGDPSRH [E11I]: the protein stability index turned out to be 2.7. To VEKVLRRWVDFEWPKRERGDPSRH [E11F] belongs 2.16; to VEKVLRRWVDCEWPKRERGDPSRH [E11C], 2.43; to VEKVQRRWVDEEWPKRERGDPSRH [L5Q], 2.78. For the variant VEKVVRRWVDEEWPKRERGDPSRH [L5V], the protein stability index was 3.23. Turning to VEKVDRRWVDEEWPKRERGDPSRH [L5D], the protein stability index worked out at 4.57. To VEKVWRRWVDEEWPKRERGDPSRH [L5W] belongs 2.98; to VEKVGRRWVDEEWPKRERGDPSRH [L5G], 4.19; to VEKVIRRWVDEEWPKRERGDPSRH [L5I], 2.96.

Turning to VEKVARRWVDEEWPKRERGDPSRH [L5A], the protein stability index turned out to be 4.3. The result for VEKVERRWVDEEWPKRERGDPSRH [L5E] reads 4.5; that for VEKVRRRWVDEEWPKRERGDPSRH [L5R], 1.99; that for VEKVPRRWVDEEWPKRERGDPSRH [L5P], 4.07. The result for VEKVYRRWVDEEWPKRERGDPSRH [L5Y] reads 2.34; that for VEKVFRRWVDEEWPKRERGDPSRH [L5F], 3.25; that for VEKVNRRWVDEEWPKRERGDPSRH [L5N], 3.94. The result for VEKVCRRWVDEEWPKRERGDPSRH [L5C] reads 2.71; that for VEKVKRRWVDEEWPKRERGDPSRH [L5K], 2.96. For the variant VEKVMRRWVDEEWPKRERGDPSRH [L5M], the protein stability index was determined as 3.3. The result for VEKVSRRWVDEEWPKRERGDPSRH [L5S] reads 2.8; that for VEKVHRRWVDEEWPKRERGDPSRH [L5H], 4.26; that for VEKVTRRWVDEEWPKRERGDPSRH [L5T], 3.98.

(Values after the supplement of paper PMC10567573.)
